{"source": "paper doi:10.1101/2022.04.05.486672", "key": {"[1]": {"biological_target": "SIRK1-ECD together with co-receptor QSK1-ECD (about 20 nM each) (Arabidopsis)", "experiment": "MST"}, "[2]": {"biological_target": "SIRK1-ECD-HA-StrepII (extracellular domain of SIRK1) (Arabidopsis)", "experiment": "MST"}}}
{"binder": "VSGNVAARKGKQQTSSGKGGGTN", "note": "[PEP7 (Elicitor Peptide 7), synthetic, untagged]", "values": [{"measurement": "Kd", "setting": "[1]", "result": 57, "unit": "nM"}, {"measurement": "Kd", "setting": "[2]", "result": 1440, "unit": "nM"}]}
